Assay results as given in PMC5768706, “Structural basis for chitin acquisition by marine Vibrio species” (Nature Communications, 2018).

Assays:
[1] = biological target: T1, VhChiP (OM-expressed, native) (Vibrio harveyi, UniProt L0RVU0); experiment: single-channel electrophysiology, planar lipid bilayer, ion current block titration; assay type: binding; conditions: 1 M KCl, 20 mM HEPES pH 7.5, 25 °C, -100 mV, sugar on cis side; range printed jointly for both full-length channels
T1 construct: gene chiP; full-length mature protein after signal peptide processing, no His-tag, pET23d(+), expressed in outer membrane of E. coli BL21(DE3) omp8 rosetta, homotrimer
T1 sequence (L0RVU0 26-375): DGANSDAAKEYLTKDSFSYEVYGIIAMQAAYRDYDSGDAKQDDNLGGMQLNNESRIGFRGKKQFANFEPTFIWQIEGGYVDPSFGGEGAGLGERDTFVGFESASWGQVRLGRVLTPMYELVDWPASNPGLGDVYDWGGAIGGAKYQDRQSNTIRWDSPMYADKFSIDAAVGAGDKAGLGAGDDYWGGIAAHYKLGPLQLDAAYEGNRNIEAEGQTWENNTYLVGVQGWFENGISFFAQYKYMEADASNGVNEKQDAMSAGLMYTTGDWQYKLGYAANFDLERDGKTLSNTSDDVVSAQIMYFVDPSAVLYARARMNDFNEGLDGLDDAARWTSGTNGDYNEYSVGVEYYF

[2] = biological target: OM-expressed VhChiP (chitoporin from Vibrio harveyi) (Vibrio harveyi); experiment: SDS-PAGE of non-boiled and boiled samples; purified protein loaded non-boiled and boiled; heat-modifiable mobility
[3] = biological target: OM-expressed VhChiP (chitoporin from Vibrio harveyi) (Vibrio harveyi); experiment: crystal structure; OM-expressed VhChiP, 10 mg/mL, 0.4% C8E4; space group C2: 28% PEG 400, 0.2 M sodium acetate, 0.1 M MES pH 6.5
[4] = biological target: in vitro-folded VhChiP (Vibrio harveyi); experiment: SDS-PAGE of non-boiled and boiled samples; purified protein loaded non-boiled and boiled; heat-modifiable mobility
[5] = biological target: in vitro-folded VhChiP (Vibrio harveyi); experiment: crystal structure; in vitro-folded SeMet VhChiP, ~12 mg/mL, 0.4% C8E4; crystal form I P2_(1): 30% PEG 400, 0.05 M NaCl, 0.1 M sodium citrate pH 5.5; crystal form II: 28% PEG 400, 0.5 M potassium iodide, 0.1 M Tris pH 8.5
[6] = biological target: T1, VhChiP (OM-expressed, native); experiment: X-ray crystal structure of co-crystals; assay type: binding; conditions: 10 mM GlcNAc4, 0.1 M MES pH 6.5, 28% PEG 400

In the case of CC(=O)N[C@H]1[C@H](O[C@H]2[C@H](O)[C@@H](NC(C)=O)[C@H](O[C@H]3[C@H](O)[C@@H](NC(C)=O)C(O)O[C@@H]3CO)O[C@@H]2CO)O[C@H](CO)[C@@H](O[C@@H]2O[C@H](CO)[C@@H](O[C@@H]3O[C@H](CO)[C@@H](O[C@@H]4O[C@H](CO)[C@@H](O)[C@H](O)[C@H]4NC(C)=O)[C@H](O)[C@H]3NC(C)=O)[C@H](O)[C@H]2NC(C)=O)[C@@H]1O (stereo partly drawn) [chitohexaose], the K [1] is reported as 2–5 × 10^5.

Work on “OM-expressed VhChiP (chitoporin from Vibrio harveyi) (natural protein)” yielded a stoichiometry N [2] of 3 and a stoichiometry N [3] of 3.

For “in vitro-folded VhChiP (natural protein)”, the stoichiometry N [4] was 3 and the stoichiometry N [5] was 3.

CC(=O)N[C@H]1[C@H](O[C@H]2[C@H](O)[C@@H](NC(C)=O)C(O)O[C@@H]2CO)O[C@H](CO)[C@@H](O[C@@H]2O[C@H](CO)[C@@H](O[C@@H]3O[C@H](CO)[C@@H](O)[C@H](O)[C@H]3NC(C)=O)[C@H](O)[C@H]2NC(C)=O)[C@@H]1O (stereo partly drawn) [chitotetraose] was tested, and the “X-ray crystal structure of co-crystals” value [6] was “we co-crystallized OM-expressed VhChiP with chitotetraose (GlcNAc4)”.
